Target: Vsg-GFP fusion protein (D. melanogaster Vsg, transiently expressed in U2OS cells) (Drosophila melanogaster)
Assay: immunostaining of cells or tissue

With “TcdA1 (TcA subunit of the Photorhabdus luminescens Tc toxin pTc) (from UniProt Q9RN43 1-2516) (natural protein)” the percent of TcdA1-bound cells that are GFP positive was 96%.

Reference: paper PMC9631961
